Assay results published in PMC9595563.

Molecular target: SARS-CoV-2 spike protein (Wuhan-Hu-1) with C-terminal histidine, coated in the ELISA of Fig 2C (SARS-CoV-2) (UniProt P0DTC2)
Assay: ELISA

Sequence of LRRC15-Fc (Q8TF66 22-538): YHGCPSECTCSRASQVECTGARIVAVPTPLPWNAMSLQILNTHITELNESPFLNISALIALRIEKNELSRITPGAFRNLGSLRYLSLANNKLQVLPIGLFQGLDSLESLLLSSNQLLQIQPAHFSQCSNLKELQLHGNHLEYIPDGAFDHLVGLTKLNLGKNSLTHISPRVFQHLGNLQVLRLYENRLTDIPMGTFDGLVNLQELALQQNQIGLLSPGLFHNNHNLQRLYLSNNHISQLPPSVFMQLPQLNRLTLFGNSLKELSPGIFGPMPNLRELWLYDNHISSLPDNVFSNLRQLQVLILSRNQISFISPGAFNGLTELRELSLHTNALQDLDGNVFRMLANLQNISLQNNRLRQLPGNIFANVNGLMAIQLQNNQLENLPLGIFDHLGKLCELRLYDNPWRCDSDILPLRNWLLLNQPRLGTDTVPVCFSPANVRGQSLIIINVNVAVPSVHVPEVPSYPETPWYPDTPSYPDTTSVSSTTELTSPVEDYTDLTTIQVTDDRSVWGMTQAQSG

## LRRC15-Fc (from UniProt Q8TF66) (Fc fusion)
  Kd: 109 nM
